Measurements taken from US20210388079A1 (published 2021).
One block for each binder: values may come before it.

Experiments:
[1] = molecular target: T1, Serine protease inhibitor Kazal-type 2 (SPINK2); peptide SPINK2-001 peptide on HLA-A*02:01 (human); assay: IFNγ release; T2 cells loaded with 10 µM to 10 pM peptide (FIG. 23); full-length, on cells
T1 peptide: ALSVLRLAL

[2] = molecular target: T1, Serine protease inhibitor Kazal-type 2 …; assay: IFNγ release; T2 cells loaded with 10 µM to 10 pM peptide (FIG. 27); full-length, on cells
[3] = molecular target: T1, Serine protease inhibitor Kazal-type 2 …; assay: IFNγ release; T2 cells loaded with 10 µM to 10 pM peptide (FIG. 30); full-length, on cells
[4] = molecular target: T1, Serine protease inhibitor Kazal-type 2 …; assay: IFNγ release; T2 cells loaded with 10 µM to 10 pM peptide (FIG. 28); full-length, on cells

- EC50 of peptide [1]: 1.94 nM
B1: R40P1C2 (TCR, V domains shown)
Valpha: AQTVTQSQPEMSVQEAETVTLSCTYDTSESDYYLFWYKQPPSRQMILVIRQEAYKQQNATENRFSVNFQKAAKSFSLKISDSQLGDAAMYFCAYLNYQLIWGAGTKLIIKP
Vbeta: EPEVTQTPSHQVTQMGQEVILRCVPISNHLYFYWYRQILGQKVEFLVSFYNNEISEKSEIFDDQFSVERPDGSNFTLKIRSTKLEDSAMYFCASSEMTAVGQYFGPGTRLTVT

- EC50 of peptide [2]: 0.86 nM
B2: R44P3E7 (TCR, V domains shown)
Valpha: GEDVEQSLFLSVREGDSSVINCTYTDSSSTYLYWYKQEPGAGLQLLTYIFSNMDMKQDQRLTVLLNKKDKHLSLRIADTQTGDSAIYFCAEINNNARLMFGDGTQLVVKP
Vbeta: AAGVIQSPRHLIKEKRETATLKCYPIPRHDTVYWYQQGPGQDPQFLISFYEKMQSDKGSIPDRFSAQQFSDYHSELNMSSLELGDSALYFCASSPPDQNTQYFGPGTRLTVL

- EC50 of peptide [3]: 0.86 nM
B3: R59P2A7 (TCR, V domains shown)
Valpha: QKEVEQNSGPLSVPEGAIASLNCTYSDRGSQSFFWYRQYSGKSPELIMSIYSNGDKEDGRFTAQLNKASQYVSLLIRDSQPSDSATYLCAVQPHDMRFGAGTRLTVKP
Vbeta: SQTIHQWPATLVQPVGSPLSLECTVEGTSNPNLYWYRQAAGRGLQLLFYSVGIGQISSEVPQNLSASRPQDRQFILSSKKLLLSDSGFYLCAWSGLVAEQFFGPGTRLTVL

- EC50 of peptide [4]: > 83.2 nM
B4: R49P2B7 (TCR, V domains shown)
Valpha: AQSVTQLGSHVSVSEGALVLLRCNYSSSVPPYLFWYVQYPNQGLQLLLKYTTGATLVKGINGFEAEFKKSETSFHLTKPSAHMSDAAEYFCAVRIFGNEKLTFGTGTRLTIIP
Vbeta: DVKVTQSSRYLVKRTGEKVFLECVQDMDHENMFWYRQDPGLGLRLIYFSYDVKMKEKGDIPEGYSVSREKKERFSLILESASTNQTSMYLCASSLMGELTGELFFGEGSRLTVL
